Data taken from patent US20040002128.

T1: CFP-YFP fusion protein, polyhistidine-tagged (bacterial version, no caspase substrate sequence)
T1 chain: SGLRSRAQASNS

T2: sensor B, polyhistidine-tagged recombinant FRET probe (bacterial version) (not fully specified)
T2 chain: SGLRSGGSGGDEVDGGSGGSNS

T3: AC-DEVD-CHO
T3 chain: DEVD

T4: sensor A, polyhistidine-tagged recombinant FRET probe (bacterial version) (not fully specified)
T4 chain: SGLRSGGDEVDGGSNS

B1: caspase-3 (protein)
chain: SGISLDNSYKMDYPEMGLCIIINNKNFHKSTGMTSRSGTDVDAANLRETFRNLKYEVRNKNDLTREEIVELMRDVSKEDHSKRSSFVCVLLSHGEEGIIFGTNGPVDLKKITNFFRGDRCRSLTGKPKLFIIQACRGTELDCGIETDSGVDDDMACHKIPVEADFLYAYSTAPGYYSWRNSKDGSWFIQSLCAMLKQYADKLEFMHILTRVNRKVATEFESFSFDATFHAKKQIPCIVSMLTKELYFYH
B2: caspase-8 (protein)
chain: SESQTLDKVYQMKSKPRGYCLIINNHNFAKAREKVPKLHSIRDRNGTHLDAGALTTTFEELHFEIKPHDDCTVEQIYEILKIYQLMDHSNMDCFICCILSHGDKGIIYGTDGQEAPIYELTSQFTGLKCPSLAGKPKVFFIQACQGDNYQKGIPVETDSEEQPYLEMDLSSPQTRYIPDEADFLLGMATVNNCVSYRNPAEGTWYIQSLCQSLRERCPRGDDILTILTEVNYEVSNKDDKKNMGKQMPQPTFTLRKKLVFPSD

Legend:
[1] = biological target: T1, CFP-YFP fusion protein, …
[2] = biological target: T2, sensor B, polyhistidine-tagged …
AC-DEVD-CHO = biological target: T3, AC-DEVD-CHO
[3] = biological target: T4, sensor A, polyhistidine-tagged …
[4] = biological target: sensor C8, polyhistidine-tagged
[5] = biological target: sensor C8A, polyhistidine-tagged

Protein	cleavage, Western blot [1]	emission spectrum after caspase-3 [1]	cleavage, Western blot [2]	decrease of the emission ratio of YFP/CFP [2]	dosage-dependent caspase-3 cleavage assay, normalized emission ratio (YFP/CFP) [2]	emission ratio of YFP/CFP before and after caspase-3 [2]	cleavage of sensor A by caspase-3, Western blot (AC-DEVD-CHO)	cleavage, Western blot [3]	decrease of the emission ratio of YFP/CFP [3]	dosage-dependent caspase-3 cleavage assay, normalized emission ratio (YFP/CFP) [3]	emission ratio of YFP/CFP before and after caspase-3 [3]	caspase-8 concentration that reduces the FRET effect by 50% (sensor 22.45 nM, one hour) [4]	caspase-8 needed for 50% FRET reduction, against sensor C8A [4]	cleavage, Western blot [4]	fraction of the sensor cleaved, band intensity on Western blot, caspase-8 216 nM, one hour [4]	caspase-8 concentration that reduces the FRET effect by 50% (sensor 22.45 nM, one hour) [5]	cleavage, Western blot [5]	fraction of the sensor cleaved, band intensity on Western blot, caspase-8 216 nM, one hour [5]
B1	no cleavage was seen for CFP-YFP fusion protein under the same condition	no change for the emission spectrum was observed from the CFP-YFP fusion protein which lacks the substrate sequence	caspase-3 can cleave almost all the sensor A and sensor B protein	decreased by 4-5 fold	both FRET probes were highly sensitive to caspase-3, although sensor A appeared to be slightly more sensitive than sensor B	from 2.76 to 0.59 for sensor B	In the presence of caspase-3 inhibitor (AC-DEVD-CHO), no FRET probe (sensor A) was cleaved	caspase-3 can cleave almost all the sensor A and sensor B protein	decreased by 4-5 fold	both FRET probes were highly sensitive to caspase-3, although sensor A appeared to be slightly more sensitive than sensor B	from 3.02 to 0.59 for sensor A							
B2												about 5-fold more caspase-8 (3.4 nM) was required to produce the same FRET reduction for sensor C8	about 5-fold more caspase-8 (3.4 nM) was required to produce the same FRET reduction for sensor C8	both sensor C8 and C8A could be cleaved by caspase-8 to release a CFP and a YFP molecule	only 58% of the sensor C8 protein was cleaved under the same condition	about 0.71 nM of caspase-8 was needed to reduce 50% of the FRET effect for sensor C8A	both sensor C8 and C8A could be cleaved by caspase-8 to release a CFP and a YFP molecule	95% of the sensor C8A protein was cleaved after incubation with caspase-8 (216 nM) for one hour
